{
  "source": "paper PMC7228753",
  "about": "(Science Advances, 2020)",
  "key": {"IRF5 [1]": {"molecular_target": "T1, IRF5 (Homo sapiens, UniProt Q13568)", "format": "cell-based"}, "IRF5 [2]": {"molecular_target": "T1, IRF5", "format": "cell-based", "remark": "listed apart in the source"}, "endogenous IRF5": {"molecular_target": "endogenous IRF5 (Homo sapiens, UniProt Q13568)", "format": "cell-based"}, "IRF5 [3]": {"molecular_target": "T1, IRF5", "format": "cell-based", "remark": "listed apart in the source"}, "[4]": {"molecular_target": "wild-type (WT) IRF5, tagged with either His or biotin at the C terminus (human)", "experiment": "FRET or BRET"}, "[5]": {"molecular_target": "IRF5 [change], tagged with either His or biotin (human)", "experiment": "FRET or BRET"}},
  "data": [
    {"molecule": "IRF5-CPP9: Negative control for IRF5-CPP5; lacks the IRF5-specific sequences (MANLGYWLLALFVTMWTDVGLCKKRPKP)", "values": [
      {"measurement": "inhibition of R848-induced IRF5 nuclear translocation in CD19+ B cells", "setting": "IRF5 [1]", "result": "neither peptide provided IRF5-specific inhibition"},
      {"measurement": "inhibition of R848-induced IRF5 nuclear translocation in CD14+ monocytes", "setting": "IRF5 [2]", "result": "neither peptide provided IRF5-specific inhibition"},
      {"measurement": "in-cell FRET signal with TRITC-IRF5", "setting": "endogenous IRF5", "result": "minimal FRET signal"},
      {"measurement": "effect on R848-induced IRF5 homodimerization", "setting": "IRF5 [3]", "result": "Neither of these two peptides inhibited"}
    ]},
    {"molecule": "Ac-IKVMWPILFIIKLVHSDKKI-NH2 [IRF5-CPP8]", "values": [
      {"measurement": "inhibition of R848-induced IRF5 nuclear translocation in CD19+ B cells", "setting": "IRF5 [1]", "result": "neither peptide provided IRF5-specific inhibition"},
      {"measurement": "inhibition of R848-induced IRF5 nuclear translocation in CD14+ monocytes", "setting": "IRF5 [2]", "result": "neither peptide provided IRF5-specific inhibition"},
      {"measurement": "in-cell FRET signal with TRITC-IRF5", "setting": "endogenous IRF5", "result": "minimal FRET signal"},
      {"measurement": "effect on R848-induced IRF5 homodimerization", "setting": "IRF5 [3]", "result": "Neither of these two peptides inhibited"}
    ]},
    {"molecule": "wild-type (WT) IRF5, tagged with either His or biotin at the C terminus (natural protein)", "values": [
      {"measurement": "Kd", "setting": "[4]", "result": 4.21, "unit": "µM"}
    ]},
    {"molecule": "Ac-IRLQISNPYLKFIPLKRAIWLIK-NH2", "note": "[IRF5-CPP1]", "values": [
      {"measurement": "IC50", "setting": "[5]", "result": "> 75", "unit": "µM"}
    ]}
  ]
}
